Values of other authors, collected in patent US20140179681A1, “METHODS AND COMPOSITIONS OF TARGETED DRUG DEVELOPMENT” (priority 2010, published 2014).

Molecular target: T1, EGF binding site (Rattus norvegicus, UniProt G3V6K6)
T1 construct: Receptor source was rat liver membranes; tissue NovaScreen BioSciences; host or cells: rat liver membranes
Settings: radioligand of the inhibitor assays; rat liver membranes; read-out: KD (binding affinity)

Kd: 1.04 nM
B1: [^125I]EGF: "The radioligand was [^125I]EGF ([…]) at a final ligand concentration of 0.36 nM" (protein, UniProt P01133 23-1207, looked up)
Pro-epidermal growth factor: PQHWSCPEGTLAGNGNSTCVGPAPFLIFSHGNSIFRIDTEGTNYEQLVVDAGVSVIMDFHYNEKRIYWVDLERQLLQRVFLNGSRQERVCNIEKNVSGMAINWINEEVIWSNQQEGIITVTDMKGNNSHILLSALKYPANVAVDPVERFIFWSSEVAGSLYRADLDGVGVKALLETSEKITAVSLDVLDKRLFWIQYNREGSNSLICSCDYDGGSVHISKHPTQHNLFAMSLFGDRIFYSTWKMKTIWIANKHTGKDMVRINLHSSFVPLGELKVVHPLAQPKAEDDTWEPEQKLCKLRKGNCSSTVCGQDLQSHLCMCAEGYALSRDRKYCEDVNECAFWNHGCTLGCKNTPGSYYCTCPVGFVLLPDGKRCHQLVSCPRNVSECSHDCVLTSEGPLCFCPEGSVLERDGKTCSGCSSPDNGGCSQLCVPLSPVSWECDCFPGYDLQLDEKSCAASGPQPFLLFANSQDIRHMHFDGTDYGTLLSQQMGMVYALDHDPVENKIYFAHTALKWIERANMDGSQRERLIEEGVDVPEGLAVDWIGRRFYWTDRGKSLIGRSDLNGKRSKIITKENISQPRGIAVHPMAKRLFWTDTGINPRIESSSLQGLGRLVIASSDLIWPSGITIDFLTDKLYWCDAKQSVIEMANLDGSKRRRLTQNDVGHPFAVAVFEDYVWFSDWAMPSVMRVNKRTGKDRVRLQGSMLKPSSLVVVHPLAKPGADPCLYQNGGCEHICKKRLGTAWCSCREGFMKASDGKTCLALDGHQLLAGGEVDLKNQVTPLDILSKTRVSEDNITESQHMLVAEIMVSDQDDCAPVGCSMYARCISEGEDATCQCLKGFAGDGKLCSDIDECEMGVPVCPPASSKCINTEGGYVCRCSEGYQGDGIHCLDIDECQLGEHSCGENASCTNTEGGYTCMCAGRLSEPGLICPDSTPPPHLREDDHHYSVRNSDSECPLSHDGYCLHDGVCMYIEALDKYACNCVVGYIGERCQYRDLKWWELRHAGHGQQQKVIVVAVCVVVLVMLLLLSLWGAHYYRTQKLLSKNPKNPYEESSRDVRSRRPADTEDGMSSCPQPWFVVIKEHQDLKNGGQPVAGEDGQAADGSMQPTSWRQEPQLCGMGTEQGCWIPVSSDKGSCPQVMERSFHMPSYGTQTLEGGVEKPHSLLSANPLWQQRALDPPHQMELTQ
modifications: Pro-epidermal growth factor 125I label
